Experimental data reported in patent US20220204580A1 (AstraZeneca / MedImmune, published 2022).
Numbered stars: 1 amine (or outer) side, 2 acyl side, 3 side chain; on linkers, the order of the positions; unused ones are H or OH. Bridge positions count the residues as written; N and C are the ends. Square brackets hold non-standard residues; d marks the D form. Side chains are listed from the residue outwards. Ends that are not written are not given here. * marks the point of attachment. C18 diacid = O=C(O)CCCCCCCCCCCCCCCCC(=O)*; γGlu = O=C(O)[C@H](CCC(=O)[*:2])N[*:1]; αMeF = C[C@](N)(Cc1ccccc1)C(=O)O; Dab = NCC[C@H](N)C(=O)O; AEEA = NCCOCCOCC(=O)O; Aib = CC(C)(N)C(=O)O

Experiments:
[1] = molecular target: T1, human calcitonin receptor (human, UniProt P30988 25-474); assay: cell-based or functional assay
T1 sequence (looked up): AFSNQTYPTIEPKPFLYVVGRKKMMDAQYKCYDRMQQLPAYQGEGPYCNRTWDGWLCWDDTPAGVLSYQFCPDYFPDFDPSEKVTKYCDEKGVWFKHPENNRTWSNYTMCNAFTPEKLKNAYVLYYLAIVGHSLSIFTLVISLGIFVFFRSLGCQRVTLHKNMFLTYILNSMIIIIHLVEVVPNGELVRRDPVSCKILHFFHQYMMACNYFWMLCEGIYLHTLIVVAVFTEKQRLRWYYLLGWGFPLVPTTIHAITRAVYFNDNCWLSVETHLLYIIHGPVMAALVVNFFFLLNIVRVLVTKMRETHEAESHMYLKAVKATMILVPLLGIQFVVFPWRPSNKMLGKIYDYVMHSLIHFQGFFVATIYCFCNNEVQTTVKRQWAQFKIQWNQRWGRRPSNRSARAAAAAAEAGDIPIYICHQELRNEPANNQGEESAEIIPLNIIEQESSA

[2] = molecular target: T2, human amylin receptor (calcitonin receptor co-expressed with receptor activity modifying protein, RAMP3) (human, UniProt P30988 25-474; O60896 24-148); assay: cell-based or functional assay
T2 sequence (looked up) 1: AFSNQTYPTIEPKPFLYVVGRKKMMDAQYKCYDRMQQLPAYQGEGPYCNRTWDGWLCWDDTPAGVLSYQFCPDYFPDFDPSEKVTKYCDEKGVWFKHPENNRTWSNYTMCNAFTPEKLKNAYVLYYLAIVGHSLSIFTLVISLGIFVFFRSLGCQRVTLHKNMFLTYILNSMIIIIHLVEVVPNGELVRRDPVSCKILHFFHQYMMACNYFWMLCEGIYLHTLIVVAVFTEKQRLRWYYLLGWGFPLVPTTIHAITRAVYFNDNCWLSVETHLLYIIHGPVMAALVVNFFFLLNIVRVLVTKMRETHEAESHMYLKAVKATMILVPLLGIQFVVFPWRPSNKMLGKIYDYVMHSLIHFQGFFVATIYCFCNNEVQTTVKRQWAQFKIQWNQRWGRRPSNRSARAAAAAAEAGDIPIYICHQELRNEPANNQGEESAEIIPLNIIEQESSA
T2 sequence (looked up) 2: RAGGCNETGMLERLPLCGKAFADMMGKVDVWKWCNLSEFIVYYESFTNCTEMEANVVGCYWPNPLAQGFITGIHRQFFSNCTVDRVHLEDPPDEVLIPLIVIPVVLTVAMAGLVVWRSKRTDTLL

B1: Peptide 156 (SEQ ID NO: 156) (peptide)
peptide: K([γGlu-C18 diacid])KCNTATCATQRLA[Dab]FL[Aib]HSSNNFGPILPPTEVGSNTY-NH2
modifications: disulfide 3-8; N-terminus assumed
SMILES: CC[C@H](C)[C@H](NC(=O)[C@@H]1CCCN1C(=O)CNC(=O)[C@H](Cc1ccccc1)NC(=O)[C@H](CC(N)=O)NC(=O)[C@H](CC(N)=O)NC(=O)[C@H](CO)NC(=O)[C@H](CO)NC(=O)[C@H](Cc1c[nH]cn1)NC(=O)C(C)(C)NC(=O)[C@H](CC(C)C)NC(=O)[C@H](Cc1ccccc1)NC(=O)[C@H](CCN)NC(=O)[C@H](C)NC(=O)[C@H](CC(C)C)NC(=O)[C@H](CCCNC(=N)N)NC(=O)[C@H](CCC(N)=O)NC(=O)[C@@H](NC(=O)[C@H](C)NC(=O)[C@@H]1CSSC[C@H](NC(=O)[C@H](CCCCN)NC(=O)[C@@H](N)CCCCNC(=O)CC[C@H](NC(=O)CCCCCCCCCCCCCCCCC(=O)O)C(=O)O)C(=O)N[C@@H](CC(N)=O)C(=O)N[C@@H]([C@@H](C)O)C(=O)N[C@@H](C)C(=O)N[C@@H]([C@@H](C)O)C(=O)N1)[C@@H](C)O)C(=O)N[C@@H](CC(C)C)C(=O)N1CCC[C@H]1C(=O)N1CCC[C@H]1C(=O)N[C@H](C(=O)N[C@@H](CCC(=O)O)C(=O)N[C@H](C(=O)NCC(=O)N[C@@H](CO)C(=O)N[C@@H](CC(N)=O)C(=O)N[C@H](C(=O)N[C@@H](Cc1ccc(O)cc1)C(N)=O)[C@@H](C)O)C(C)C)[C@@H](C)O
EC50 (cAMP production) [1]: 83.8 nM | EC50 (cAMP production) [2]: 3.75 nM | Ratio (EC50 hCTR / EC50 hAMYR3) [2]: 22.3

B2: Peptide 154 (SEQ ID NO: 154) (peptide)
peptide: K([γGlu-C18 diacid])KCNTATCATQRLANFL[Aib]HSSGNFGPILPPTNVGSNTY-NH2
modifications: disulfide 3-8; N-terminus assumed
SMILES: CC[C@H](C)[C@H](NC(=O)[C@@H]1CCCN1C(=O)CNC(=O)[C@H](Cc1ccccc1)NC(=O)[C@H](CC(N)=O)NC(=O)CNC(=O)[C@H](CO)NC(=O)[C@H](CO)NC(=O)[C@H](Cc1c[nH]cn1)NC(=O)C(C)(C)NC(=O)[C@H](CC(C)C)NC(=O)[C@H](Cc1ccccc1)NC(=O)[C@H](CC(N)=O)NC(=O)[C@H](C)NC(=O)[C@H](CC(C)C)NC(=O)[C@H](CCCNC(=N)N)NC(=O)[C@H](CCC(N)=O)NC(=O)[C@@H](NC(=O)[C@H](C)NC(=O)[C@@H]1CSSC[C@H](NC(=O)[C@H](CCCCN)NC(=O)[C@@H](N)CCCCNC(=O)CC[C@H](NC(=O)CCCCCCCCCCCCCCCCC(=O)O)C(=O)O)C(=O)N[C@@H](CC(N)=O)C(=O)N[C@@H]([C@@H](C)O)C(=O)N[C@@H](C)C(=O)N[C@@H]([C@@H](C)O)C(=O)N1)[C@@H](C)O)C(=O)N[C@@H](CC(C)C)C(=O)N1CCC[C@H]1C(=O)N1CCC[C@H]1C(=O)N[C@H](C(=O)N[C@@H](CC(N)=O)C(=O)N[C@H](C(=O)NCC(=O)N[C@@H](CO)C(=O)N[C@@H](CC(N)=O)C(=O)N[C@H](C(=O)N[C@@H](Cc1ccc(O)cc1)C(N)=O)[C@@H](C)O)C(C)C)[C@@H](C)O
EC50 (cAMP production) [1]: 1.54 nM | EC50 (cAMP production) [2]: 0.574 nM | Ratio (EC50 hCTR / EC50 hAMYR3) [2]: 2.7

B3: Peptide 155 (SEQ ID NO: 155) (peptide)
peptide: K([γGlu-C18 diacid])CNTATCATQRLANFL[Aib]HSSNNFGPILPPTRVGSNTY-NH2
modifications: disulfide 2-7; N-terminus assumed
SMILES: CC[C@H](C)[C@H](NC(=O)[C@@H]1CCCN1C(=O)CNC(=O)[C@H](Cc1ccccc1)NC(=O)[C@H](CC(N)=O)NC(=O)[C@H](CC(N)=O)NC(=O)[C@H](CO)NC(=O)[C@H](CO)NC(=O)[C@H](Cc1c[nH]cn1)NC(=O)C(C)(C)NC(=O)[C@H](CC(C)C)NC(=O)[C@H](Cc1ccccc1)NC(=O)[C@H](CC(N)=O)NC(=O)[C@H](C)NC(=O)[C@H](CC(C)C)NC(=O)[C@H](CCCNC(=N)N)NC(=O)[C@H](CCC(N)=O)NC(=O)[C@@H](NC(=O)[C@H](C)NC(=O)[C@@H]1CSSC[C@H](NC(=O)[C@@H](N)CCCCNC(=O)CC[C@H](NC(=O)CCCCCCCCCCCCCCCCC(=O)O)C(=O)O)C(=O)N[C@@H](CC(N)=O)C(=O)N[C@@H]([C@@H](C)O)C(=O)N[C@@H](C)C(=O)N[C@@H]([C@@H](C)O)C(=O)N1)[C@@H](C)O)C(=O)N[C@@H](CC(C)C)C(=O)N1CCC[C@H]1C(=O)N1CCC[C@H]1C(=O)N[C@H](C(=O)N[C@@H](CCCNC(=N)N)C(=O)N[C@H](C(=O)NCC(=O)N[C@@H](CO)C(=O)N[C@@H](CC(N)=O)C(=O)N[C@H](C(=O)N[C@@H](Cc1ccc(O)cc1)C(N)=O)[C@@H](C)O)C(C)C)[C@@H](C)O
EC50 (cAMP production) [1]: 3.93 nM | EC50 (cAMP production) [2]: 0.329 nM | Ratio (EC50 hCTR / EC50 hAMYR3) [2]: 11.9

B4: Peptide 19 (SEQ ID NO: 19) (peptide)
peptide: K([γGlu-C18 diacid])CNTATCATQRLANFLRHSSNN[αMeF]GPILPPTNVGSNTY-NH2
modifications: disulfide 2-7; N-terminus assumed
SMILES: CC[C@H](C)[C@H](NC(=O)[C@@H]1CCCN1C(=O)CNC(=O)[C@](C)(Cc1ccccc1)NC(=O)[C@H](CC(N)=O)NC(=O)[C@H](CC(N)=O)NC(=O)[C@H](CO)NC(=O)[C@H](CO)NC(=O)[C@H](Cc1c[nH]cn1)NC(=O)[C@H](CCCNC(=N)N)NC(=O)[C@H](CC(C)C)NC(=O)[C@H](Cc1ccccc1)NC(=O)[C@H](CC(N)=O)NC(=O)[C@H](C)NC(=O)[C@H](CC(C)C)NC(=O)[C@H](CCCNC(=N)N)NC(=O)[C@H](CCC(N)=O)NC(=O)[C@@H](NC(=O)[C@H](C)NC(=O)[C@@H]1CSSC[C@H](NC(=O)[C@@H](N)CCCCNC(=O)CC[C@H](NC(=O)CCCCCCCCCCCCCCCCC(=O)O)C(=O)O)C(=O)N[C@@H](CC(N)=O)C(=O)N[C@@H]([C@@H](C)O)C(=O)N[C@@H](C)C(=O)N[C@@H]([C@@H](C)O)C(=O)N1)[C@@H](C)O)C(=O)N[C@@H](CC(C)C)C(=O)N1CCC[C@H]1C(=O)N1CCC[C@H]1C(=O)N[C@H](C(=O)N[C@@H](CC(N)=O)C(=O)N[C@H](C(=O)NCC(=O)N[C@@H](CO)C(=O)N[C@@H](CC(N)=O)C(=O)N[C@H](C(=O)N[C@@H](Cc1ccc(O)cc1)C(N)=O)[C@@H](C)O)C(C)C)[C@@H](C)O
EC50 (cAMP production) [1]: 4.04 nM | EC50 (cAMP production) [2]: 0.278 nM | Ratio (EC50 hCTR / EC50 hAMYR3) [2]: 15

B5: Peptide 151 (SEQ ID NO: 151) (peptide)
peptide: K([γGlu-C18 diacid])CNTATCATQRLANFL[Aib]HSSNNFGPI[dL]PPTNVGSNTY-NH2
modifications: disulfide 2-7; N-terminus assumed
SMILES: CC[C@H](C)[C@H](NC(=O)[C@@H]1CCCN1C(=O)CNC(=O)[C@H](Cc1ccccc1)NC(=O)[C@H](CC(N)=O)NC(=O)[C@H](CC(N)=O)NC(=O)[C@H](CO)NC(=O)[C@H](CO)NC(=O)[C@H](Cc1c[nH]cn1)NC(=O)C(C)(C)NC(=O)[C@H](CC(C)C)NC(=O)[C@H](Cc1ccccc1)NC(=O)[C@H](CC(N)=O)NC(=O)[C@H](C)NC(=O)[C@H](CC(C)C)NC(=O)[C@H](CCCNC(=N)N)NC(=O)[C@H](CCC(N)=O)NC(=O)[C@@H](NC(=O)[C@H](C)NC(=O)[C@@H]1CSSC[C@H](NC(=O)[C@@H](N)CCCCNC(=O)CC[C@H](NC(=O)CCCCCCCCCCCCCCCCC(=O)O)C(=O)O)C(=O)N[C@@H](CC(N)=O)C(=O)N[C@@H]([C@@H](C)O)C(=O)N[C@@H](C)C(=O)N[C@@H]([C@@H](C)O)C(=O)N1)[C@@H](C)O)C(=O)N[C@H](CC(C)C)C(=O)N1CCC[C@H]1C(=O)N1CCC[C@H]1C(=O)N[C@H](C(=O)N[C@@H](CC(N)=O)C(=O)N[C@H](C(=O)NCC(=O)N[C@@H](CO)C(=O)N[C@@H](CC(N)=O)C(=O)N[C@H](C(=O)N[C@@H](Cc1ccc(O)cc1)C(N)=O)[C@@H](C)O)C(C)C)[C@@H](C)O
EC50 (cAMP production) [1]: 0.898 nM | EC50 (cAMP production) [2]: 0.061 nM | Ratio (EC50 hCTR / EC50 hAMYR3) [2]: 14.7

B6: Peptide 17 (SEQ ID NO: 17) (peptide)
peptide: K([AEEA-AEEA-γGlu-C18 diacid])CNTATCATQRLANFLRHSSNN[αMeF]GPILPPTEVGSNTY-NH2
modifications: disulfide 2-7; N-terminus assumed
SMILES: CC[C@H](C)[C@H](NC(=O)[C@@H]1CCCN1C(=O)CNC(=O)[C@](C)(Cc1ccccc1)NC(=O)[C@H](CC(N)=O)NC(=O)[C@H](CC(N)=O)NC(=O)[C@H](CO)NC(=O)[C@H](CO)NC(=O)[C@H](Cc1c[nH]cn1)NC(=O)[C@H](CCCNC(=N)N)NC(=O)[C@H](CC(C)C)NC(=O)[C@H](Cc1ccccc1)NC(=O)[C@H](CC(N)=O)NC(=O)[C@H](C)NC(=O)[C@H](CC(C)C)NC(=O)[C@H](CCCNC(=N)N)NC(=O)[C@H](CCC(N)=O)NC(=O)[C@@H](NC(=O)[C@H](C)NC(=O)[C@@H]1CSSC[C@H](NC(=O)[C@@H](N)CCCCNC(=O)COCCOCCNC(=O)COCCOCCNC(=O)CC[C@H](NC(=O)CCCCCCCCCCCCCCCCC(=O)O)C(=O)O)C(=O)N[C@@H](CC(N)=O)C(=O)N[C@@H]([C@@H](C)O)C(=O)N[C@@H](C)C(=O)N[C@@H]([C@@H](C)O)C(=O)N1)[C@@H](C)O)C(=O)N[C@@H](CC(C)C)C(=O)N1CCC[C@H]1C(=O)N1CCC[C@H]1C(=O)N[C@H](C(=O)N[C@@H](CCC(=O)O)C(=O)N[C@H](C(=O)NCC(=O)N[C@@H](CO)C(=O)N[C@@H](CC(N)=O)C(=O)N[C@H](C(=O)N[C@@H](Cc1ccc(O)cc1)C(N)=O)[C@@H](C)O)C(C)C)[C@@H](C)O
EC50 (cAMP production) [1]: 7.08 nM | EC50 (cAMP production) [2]: 0.365 nM | Ratio (EC50 hCTR / EC50 hAMYR3) [2]: 19
